From patent US20240358855A1 (UNIVERSITY OF UTAH RESEARCH FOUNDATION, published 2024)

B1: rCFHT-I62 Protein (other)
chain: EDCNELPPRRNTEILTGSWSDQTYPEGTQAIYKCRPGYRSLGNIIMVCRKGEWVALNPLRKCQKRPCGHPGDTPFGTFTLTGGNVFEYGVKAVYTCNEGYQLLGEINYRECDTDGWTNDIPICEVVKCLPVTAPENGKIVSSAMEPDREYHFGQAVRFVCNSGYKIEGDEEMHCSDDGFWSKEKPKCVEISCKSPDVINGSPISQKIIYKENERFQYKCNMGYEYSERGDAVCTESGWRPLPSCEEKSCDNPYIPNGDYSPLRIKHRTGDEITYQCRNGFYPATRGNTAKCTSTGWIPAPRCTLKPCDYPDIKHGGLYHENMRRPYFPVAVGKYYSYYCDEHFETPSGSYWDHIHCTQDGWSPAVPCLRKCYFPYLENGYNQNYGRKFVQGKSIDVACHPGYALPKAQTTVTCMENGWSPTPRCIRVSFTL
notes: Purified recombinant protective CFHT (I62, Y402); also called purified recombinant CFHT-I62 protein; recombinant CFHT-I62
B2: CFHT.0 (pCTM297) (other)
chain: B1 chain
notes: also called unmodified CFHT; protective CFHT
B3: His-mCFHT.1 (pCTM459) (other, not shown: small tags and cut ends)
chain: EDCNELPPRRNTEILTGSWSDQTYPEGTQAIYKCRPGYRSLGNIIMVCRKGEWVALNPLRKCQKRPCGHPGDTPFGTFTLTGGNVFEYGVKAVYTCNEGYQLLGEINYRECDTDGWTNDIPICEVVKCLPVTAPENGKIVSSAMEPDREYHFGQAVRFVCNSGYKIEGDEEMHCSDDGFWSKEKPKCVEISCKSPDVINGSPISQKIIYKENERFQYKCNMGYEYSERGDAVCTESGWRPLPSCEEKSCDNPYIPNGDYSPLRIKHRTGDEITYQCRNGFYPATRGNTAKCTSTGWIPAPRCTLKPCDYPDIKHGGLYHENMRRPYFPVAVGKYYSYYCDEHFETPSGSYWDHIHCTQDGWSPAVPCLRKCYFPYLENGYNQNYGRKFVQGKSIDVACHPGYALPKAQTTVTCMENGWSPTPRCIRVRKCYFPYLENGYNQNYGRKFVQGKSIDVACHPGYALPKAQTTVTCMENGWSPTPRCIRVSFTL
notes: Protective CFHT with one additional C-terminal SCR7 domain; also called purified recombinant mCFHT.1
B4: His-dCFHT.0 (pCTM462) (other)
chain: EATFCDFPKINHGILYDEEKYKPFSQVPTGEVFYYSCEYNFVSPSKSFWTRITCTEEGWSPTPKCLRLCFFPFVENGHSESSGQTHLEGDTVQIICNTGYRLQNNENNISCVERGWSTPPKCRSGGGGSGGGGSEDCNELPPRRNTEILTGSWSDQTYPEGTQAIYKCRPGYRSLGNIIMVCRKGEWVALNPLRKCQKRPCGHPGDTPFGTFTLTGGNVFEYGVKAVYTCNEGYQLLGEINYRECDTDGWTNDIPICEVVKCLPVTAPENGKIVSSAMEPDREYHFGQAVRFVCNSGYKIEGDEEMHCSDDGFWSKEKPKCVEISCKSPDVINGSPISQKIIYKENERFQYKCNMGYEYSERGDAVCTESGWRPLPSCEEKSCDNPYIPNGDYSPLRIKHRTGDEITYQCRNGFYPATRGNTAKCTSTGWIPAPRCTLKPCDYPDIKHGGLYHENMRRPYFPVAVGKYYSYYCDEHFETPSGSYWDHIHCTQDGWSPAVPCLRKCYFPYLENGYNQNYGRKFVQGKSIDVACHPGYALPKAQTTVTCMENGWSPTPRCIRVSFTL
notes: Protective CFHT with the FHR-1 SCR1/2 homodimerization domain at the N-terminus ('dimer CFHT'); copies 2 follows that description, dimer state not measured; no residue range stated; also called purified recombinant dCFHT.0; not shown: 6x His-TEV tag (87 bp, 29 residues by transgene size: 1839 against 1752)
B5: His-mCFHT.2 (pCTM460) (other)
chain: EDCNELPPRRNTEILTGSWSDQTYPEGTQAIYKCRPGYRSLGNIIMVCRKGEWVALNPLRKCQKRPCGHPGDTPFGTFTLTGGNVFEYGVKAVYTCNEGYQLLGEINYRECDTDGWTNDIPICEVVKCLPVTAPENGKIVSSAMEPDREYHFGQAVRFVCNSGYKIEGDEEMHCSDDGFWSKEKPKCVEISCKSPDVINGSPISQKIIYKENERFQYKCNMGYEYSERGDAVCTESGWRPLPSCEEKSCDNPYIPNGDYSPLRIKHRTGDEITYQCRNGFYPATRGNTAKCTSTGWIPAPRCTLKPCDYPDIKHGGLYHENMRRPYFPVAVGKYYSYYCDEHFETPSGSYWDHIHCTQDGWSPAVPCLRKCYFPYLENGYNQNYGRKFVQGKSIDVACHPGYALPKAQTTVTCMENGWSPTPRCIRVRKCYFPYLENGYNQNYGRKFVQGKSIDVACHPGYALPKAQTTVTCMENGWSPTPRCIRVRKCYFPYLENGYNQNYGRKFVQGKSIDVACHPGYALPKAQTTVTCMENGWSPTPRCIRVSFTL
notes: Protective CFHT with two additional C-terminal SCR7 domains; no residue range stated; HEK293 supernatant; not shown: N-terminal 6x His-TEV tag (87 bp, 29 residues by transgene size: 1791 against 1704)

What was measured:
C3b protein [1] = target: T1, C3b protein (UniProt P01024 23-667; P01024 749-1663, limits assumed); experiment: plate binding ELISA on coated C3b; fold vs (-) control pCTM395 supernatant
T1 construct: domain: C3b; Bought protein coated on plates
T1 sequence (P01024 23-667 limits assumed, chain 1 of 2): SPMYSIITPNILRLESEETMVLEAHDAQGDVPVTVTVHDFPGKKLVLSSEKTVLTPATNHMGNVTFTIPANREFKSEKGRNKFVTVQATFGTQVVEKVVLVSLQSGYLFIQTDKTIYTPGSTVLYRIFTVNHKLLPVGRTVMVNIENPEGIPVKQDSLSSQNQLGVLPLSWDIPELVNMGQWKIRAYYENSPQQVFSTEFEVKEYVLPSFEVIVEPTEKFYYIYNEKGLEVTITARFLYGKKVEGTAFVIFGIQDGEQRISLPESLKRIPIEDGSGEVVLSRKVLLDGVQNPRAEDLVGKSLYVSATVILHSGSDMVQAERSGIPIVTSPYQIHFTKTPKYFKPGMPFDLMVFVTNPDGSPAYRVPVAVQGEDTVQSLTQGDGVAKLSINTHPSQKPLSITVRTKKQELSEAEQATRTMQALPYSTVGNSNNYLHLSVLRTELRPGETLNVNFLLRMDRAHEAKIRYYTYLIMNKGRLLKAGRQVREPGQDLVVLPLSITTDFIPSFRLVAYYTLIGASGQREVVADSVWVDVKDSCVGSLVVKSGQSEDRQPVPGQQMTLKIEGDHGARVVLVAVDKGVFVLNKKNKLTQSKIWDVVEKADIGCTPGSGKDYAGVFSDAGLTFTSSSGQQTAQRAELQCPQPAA
T1 sequence (P01024 749-1663 limits assumed, chain 2 of 2): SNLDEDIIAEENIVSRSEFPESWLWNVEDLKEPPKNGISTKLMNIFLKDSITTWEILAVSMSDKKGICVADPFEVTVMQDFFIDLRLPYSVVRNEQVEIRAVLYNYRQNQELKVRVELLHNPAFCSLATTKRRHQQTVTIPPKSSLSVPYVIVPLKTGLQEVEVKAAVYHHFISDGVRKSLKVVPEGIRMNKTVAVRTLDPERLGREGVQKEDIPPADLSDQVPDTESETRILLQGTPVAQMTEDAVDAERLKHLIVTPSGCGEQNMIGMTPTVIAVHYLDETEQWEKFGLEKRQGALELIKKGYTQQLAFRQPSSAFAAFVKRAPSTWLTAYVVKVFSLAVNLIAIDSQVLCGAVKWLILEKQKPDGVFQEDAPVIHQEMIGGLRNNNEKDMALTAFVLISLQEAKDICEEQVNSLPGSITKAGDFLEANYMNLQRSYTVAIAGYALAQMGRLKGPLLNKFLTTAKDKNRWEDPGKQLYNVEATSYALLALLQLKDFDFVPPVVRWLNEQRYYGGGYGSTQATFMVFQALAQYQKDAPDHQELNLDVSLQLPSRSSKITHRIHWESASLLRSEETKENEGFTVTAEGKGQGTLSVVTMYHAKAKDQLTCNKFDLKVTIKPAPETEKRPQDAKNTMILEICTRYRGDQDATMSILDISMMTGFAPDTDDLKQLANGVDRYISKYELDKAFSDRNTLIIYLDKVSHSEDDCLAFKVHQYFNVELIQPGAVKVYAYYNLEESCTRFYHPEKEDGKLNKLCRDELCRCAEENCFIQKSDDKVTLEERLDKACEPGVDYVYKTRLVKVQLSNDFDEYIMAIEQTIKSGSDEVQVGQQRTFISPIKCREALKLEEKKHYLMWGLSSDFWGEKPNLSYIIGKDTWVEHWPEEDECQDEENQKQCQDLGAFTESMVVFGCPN

CRP [2] = target: T2, CRP (UniProt P02741 19-224); experiment: plate binding ELISA on coated CRP; fold vs (-) control pCTM395 supernatant
T2 construct: Bought protein coated on plates; also called C reactive protein
T2 sequence (looked up): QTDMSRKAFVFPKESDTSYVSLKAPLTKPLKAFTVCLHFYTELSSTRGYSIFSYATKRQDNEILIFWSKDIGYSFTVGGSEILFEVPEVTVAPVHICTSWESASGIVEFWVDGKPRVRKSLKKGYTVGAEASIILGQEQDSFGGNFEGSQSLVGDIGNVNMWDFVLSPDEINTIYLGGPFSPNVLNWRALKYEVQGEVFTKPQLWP

C3b protein [3] = target: T1, C3b protein; experiment: plate binding ELISA on coated C3b, HEK293 supernatant 25 ng/mL; fold vs (-) control pCTM395 supernatant
Protocol: The C3b binding assay uses C3b protein (Complement Technology, Cat. #A114) diluted with 50 mM carbonate coating buffer (pH 9.6) at a final concentration of 50 μM. A total of 100 μl of C3b/carbonate solution was added to each well of a black MaxiSorp 96-wellmicroplate, covered and incubated overnight at 4° C. Blank control wells were incubated with carbonate coating buffer containing no C3b protein. Wells were washed 3 times with 300 μl PBST then blocked for 1 hour with reagent dilution buffer (1% BSA in PBS). Wells were washed again 3 times with 300 μl PBST. […] The plate was washed as above then incubated for 1 hour with anti-CFH/CFHT biotinylated aCTM87b antibody (OX-24, AbCam, Cat. #ab112197) at 1:1000 dilution. The plates were washed as above, then incubated for 1 hour with high sensitivity Streptavidin-HRP (Pierce Cat. #21130) at 1:10,000, washed as above then incubated for 5 minutes with SuperSignal ELISA Pico Chemiluminescent Substrate (Thermo Scientific, Cat. #37069) before detection using the BioTek Synergy4 plate reader.
For C3b assays, 25 ng/mL of CFHT protein-containing supernatant was added to plates coated with C3b.

C3 convertase, C3bBb = C3 convertase, C3bBb (UniProt P01024 23-1663; P00751 260-764, limits assumed); experiment: cell-based or functional assay
C3 convertase, C3bBb, sequence (P01024 23-1663 limits assumed, chain 1 of 2): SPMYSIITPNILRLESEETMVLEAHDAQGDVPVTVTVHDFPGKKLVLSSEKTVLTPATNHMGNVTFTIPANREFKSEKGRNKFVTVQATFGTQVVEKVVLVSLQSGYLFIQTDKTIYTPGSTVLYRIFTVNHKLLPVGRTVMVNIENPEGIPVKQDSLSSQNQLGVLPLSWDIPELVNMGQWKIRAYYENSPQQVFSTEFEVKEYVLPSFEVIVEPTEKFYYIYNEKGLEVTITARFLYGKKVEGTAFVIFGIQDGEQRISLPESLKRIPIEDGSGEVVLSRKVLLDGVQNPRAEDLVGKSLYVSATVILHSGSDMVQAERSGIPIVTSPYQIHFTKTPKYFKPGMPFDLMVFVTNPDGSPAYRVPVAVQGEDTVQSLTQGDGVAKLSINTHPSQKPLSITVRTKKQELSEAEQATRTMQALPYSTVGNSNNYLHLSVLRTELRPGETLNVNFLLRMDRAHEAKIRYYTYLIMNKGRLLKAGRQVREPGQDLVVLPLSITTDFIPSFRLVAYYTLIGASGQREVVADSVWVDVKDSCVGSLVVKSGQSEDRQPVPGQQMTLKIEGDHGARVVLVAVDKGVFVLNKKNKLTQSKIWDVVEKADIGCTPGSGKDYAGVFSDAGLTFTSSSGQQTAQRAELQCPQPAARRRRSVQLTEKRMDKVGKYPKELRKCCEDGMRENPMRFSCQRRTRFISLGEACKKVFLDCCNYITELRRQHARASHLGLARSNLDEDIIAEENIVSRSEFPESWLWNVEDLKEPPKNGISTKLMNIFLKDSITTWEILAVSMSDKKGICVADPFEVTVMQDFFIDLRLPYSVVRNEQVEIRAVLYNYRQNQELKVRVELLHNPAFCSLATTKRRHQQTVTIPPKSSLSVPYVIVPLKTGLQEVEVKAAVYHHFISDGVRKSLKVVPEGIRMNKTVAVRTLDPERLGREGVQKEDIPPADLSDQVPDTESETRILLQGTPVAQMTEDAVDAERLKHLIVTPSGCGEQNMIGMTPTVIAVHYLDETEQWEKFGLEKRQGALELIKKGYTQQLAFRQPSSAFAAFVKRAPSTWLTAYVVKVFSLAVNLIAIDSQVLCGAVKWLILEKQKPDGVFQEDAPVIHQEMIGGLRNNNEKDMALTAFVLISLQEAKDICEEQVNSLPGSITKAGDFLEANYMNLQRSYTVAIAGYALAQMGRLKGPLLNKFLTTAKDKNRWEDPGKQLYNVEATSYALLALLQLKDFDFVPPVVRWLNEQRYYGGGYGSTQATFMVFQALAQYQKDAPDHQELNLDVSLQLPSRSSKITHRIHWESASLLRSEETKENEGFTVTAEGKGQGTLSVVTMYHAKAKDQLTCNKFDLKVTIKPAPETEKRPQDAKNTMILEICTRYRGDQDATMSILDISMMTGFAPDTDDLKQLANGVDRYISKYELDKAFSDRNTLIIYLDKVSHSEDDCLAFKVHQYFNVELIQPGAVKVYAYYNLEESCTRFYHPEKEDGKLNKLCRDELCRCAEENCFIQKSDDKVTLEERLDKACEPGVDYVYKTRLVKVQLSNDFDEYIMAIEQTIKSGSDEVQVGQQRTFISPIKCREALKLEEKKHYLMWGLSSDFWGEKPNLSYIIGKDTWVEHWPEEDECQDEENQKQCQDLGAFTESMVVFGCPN
C3 convertase, C3bBb, sequence (P00751 260-764 limits assumed, chain 2 of 2): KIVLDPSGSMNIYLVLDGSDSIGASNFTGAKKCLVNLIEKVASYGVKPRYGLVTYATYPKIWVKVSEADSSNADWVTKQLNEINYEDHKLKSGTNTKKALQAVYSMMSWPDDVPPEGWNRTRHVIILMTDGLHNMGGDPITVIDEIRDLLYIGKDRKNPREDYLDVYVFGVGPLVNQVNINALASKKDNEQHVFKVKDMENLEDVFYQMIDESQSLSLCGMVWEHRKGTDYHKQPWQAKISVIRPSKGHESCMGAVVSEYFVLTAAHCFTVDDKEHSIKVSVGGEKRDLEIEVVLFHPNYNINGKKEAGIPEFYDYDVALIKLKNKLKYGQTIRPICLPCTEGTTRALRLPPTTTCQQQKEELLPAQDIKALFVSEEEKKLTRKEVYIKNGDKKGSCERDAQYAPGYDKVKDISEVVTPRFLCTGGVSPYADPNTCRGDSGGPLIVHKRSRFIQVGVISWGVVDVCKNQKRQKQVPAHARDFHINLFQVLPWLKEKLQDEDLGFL

C3d ligand = target: T3, C3d ligand (UniProt P01024 1002-1303, limits assumed); experiment: plate binding assay on C3d, purified protein; fold vs CFHT-I62
T3 construct: domain: C3d
T3 sequence (P01024 1002-1303 limits assumed): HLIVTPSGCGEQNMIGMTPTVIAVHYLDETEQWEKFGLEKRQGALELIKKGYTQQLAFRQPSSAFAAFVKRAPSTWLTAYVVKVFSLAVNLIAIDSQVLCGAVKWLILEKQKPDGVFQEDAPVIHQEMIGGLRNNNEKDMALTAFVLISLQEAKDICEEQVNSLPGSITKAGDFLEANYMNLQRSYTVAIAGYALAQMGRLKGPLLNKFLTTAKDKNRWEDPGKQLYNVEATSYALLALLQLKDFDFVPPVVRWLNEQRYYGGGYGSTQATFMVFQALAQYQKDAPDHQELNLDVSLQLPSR

C3b protein [4] = target: T1, C3b protein; experiment: plate binding ELISA on coated C3b, purified protein; fold vs CFHT-I62
Protocol: The C3b binding assay uses C3b protein (Complement Technology, Cat. #A114) diluted with 50 mM carbonate coating buffer (pH 9.6) at a final concentration of 50 μM. A total of 100 μl of C3b/carbonate solution was added to each well of a black MaxiSorp 96-wellmicroplate, covered and incubated overnight at 4° C. Blank control wells were incubated with carbonate coating buffer containing no C3b protein. Wells were washed 3 times with 300 μl PBST then blocked for 1 hour with reagent dilution buffer (1% BSA in PBS). Wells were washed again 3 times with 300 μl PBST. Dilutions of recombinant protective CFH, CFHT, oCFHT or supernatant from transiently transfected or transduced Cos-7 cells were prepared in reagent dilution buffer, added to wells in triplicate and incubated for 1 hour at room temperature. The plate was washed as above then incubated for 1 hour with anti-CFH/CFHT biotinylated aCTM87b antibody (OX-24, AbCam, Cat. #ab112197) at 1:1000 dilution. The plates were washed as above, then incubated for 1 hour with high sensitivity Streptavidin-HRP (Pierce Cat. #21130) at 1:10,000, washed as above then incubated for 5 minutes with SuperSignal ELISA Pico Chemiluminescent Substrate (Thermo Scientific, Cat. #37069) before detection using the BioTek Synergy4 plate reader. […]

CRP [5] = target: T2, CRP; experiment: plate binding ELISA on coated CRP, purified protein; fold vs CFHT-I62
CRP [6] = target: T2, CRP; experiment: plate binding ELISA on coated CRP, HEK293 supernatant; fold vs (-) control pCTM395 supernatant

Binder | Fold Activity at Highest Dose (Relative to Control) (C3b protein [1]) | Fold Activity at Highest Dose (Relative to Control) (CRP [2]) | Fold Activity at Highest Dose (Relative to Control) (C3b protein [3]) | IC50, decay acceleration activity (DAA) assay (C3 convertase, C3bBb) | fold less active than unmodified CFHT, DAA assay (C3 convertase, C3bBb) | Fold Activity (Compared to CFHT-I62) (C3d ligand) | Fold Activity (Compared to CFHT-I62) (C3b protein [4]) | Fold Activity (Compared to CFHT-I62) (CRP [5]) | Fold Activity at Highest Dose (Relative to Control) (CRP [6])
B1 | 3.8 fold | 2.8 fold |  |  |  |  |  |  | 
B2 |  |  | 1.5 fold |  |  |  |  |  | 
B3 |  |  | 43 fold | 15.5 nM | 8 fold | 3.8 fold | 40.1 fold | 12.2 fold | 6.3 fold
B4 |  |  | 22 fold |  |  | 2.1 fold | 55.3 fold | 2.2 fold | 6.4 fold
B5 |  |  | 99 fold |  |  |  |  |  | 49 fold
